From US20100015126A1 (published 2010)

What was measured:
[1] = molecular target: recombinant human HSP90beta (human, UniProt P08238 1-724); assay: direct ELISA, coated ligand, HSP90 concentration series
[2] = molecular target: T1, synthetic human amyloid-β(1-42) peptide (Aβ42t=0) (human); assay: direct ELISA, coated ligand, anti-His-tag detection
T1 construct: also called Aβ1-42

[3] = molecular target: T2, oxidized human plasma low density lipoprotein (oxLDL) with misfolded apolipoprotein B100 (human, UniProt P04114 28-4563); assay: direct ELISA, coated ligand, HSP60 concentration series
T2 construct: also called oxidized LDL

[4] = molecular target: T3, fibrin (immobilized, formed from fibrinogen with factor IIa) (UniProt P02671 36-629; P02675 45-491; P02679 27-437); assay: direct ELISA, fibrin formed in wells, anti-His-tag detection
T3 sequence (looked up) 1: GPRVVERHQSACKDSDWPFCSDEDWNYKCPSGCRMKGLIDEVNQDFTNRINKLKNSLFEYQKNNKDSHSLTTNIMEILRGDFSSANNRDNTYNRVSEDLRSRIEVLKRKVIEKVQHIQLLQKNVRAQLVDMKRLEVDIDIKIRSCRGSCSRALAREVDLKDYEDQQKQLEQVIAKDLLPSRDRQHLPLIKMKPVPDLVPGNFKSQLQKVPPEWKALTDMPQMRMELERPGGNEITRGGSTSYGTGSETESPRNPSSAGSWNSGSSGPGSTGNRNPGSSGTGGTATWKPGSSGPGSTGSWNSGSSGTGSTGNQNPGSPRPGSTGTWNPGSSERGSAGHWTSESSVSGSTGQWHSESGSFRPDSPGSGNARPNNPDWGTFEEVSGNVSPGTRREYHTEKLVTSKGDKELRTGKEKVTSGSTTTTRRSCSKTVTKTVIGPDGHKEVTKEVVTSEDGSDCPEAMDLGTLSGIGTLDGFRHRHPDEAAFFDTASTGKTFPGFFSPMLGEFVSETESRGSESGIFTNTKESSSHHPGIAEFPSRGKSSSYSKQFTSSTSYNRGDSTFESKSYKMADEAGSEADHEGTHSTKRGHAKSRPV
T3 sequence (looked up) 2: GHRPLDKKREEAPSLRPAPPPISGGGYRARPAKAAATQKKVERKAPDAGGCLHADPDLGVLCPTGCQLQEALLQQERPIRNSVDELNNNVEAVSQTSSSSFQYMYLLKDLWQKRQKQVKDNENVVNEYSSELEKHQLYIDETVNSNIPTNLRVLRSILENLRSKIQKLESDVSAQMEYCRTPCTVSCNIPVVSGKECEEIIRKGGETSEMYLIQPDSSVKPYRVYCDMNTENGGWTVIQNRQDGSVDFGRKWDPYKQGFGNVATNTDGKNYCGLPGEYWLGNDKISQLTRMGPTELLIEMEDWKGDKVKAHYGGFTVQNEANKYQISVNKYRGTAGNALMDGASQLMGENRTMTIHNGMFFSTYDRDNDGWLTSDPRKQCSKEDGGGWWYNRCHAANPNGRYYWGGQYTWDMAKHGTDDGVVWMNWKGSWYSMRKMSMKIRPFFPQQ
T3 sequence (looked up) 3: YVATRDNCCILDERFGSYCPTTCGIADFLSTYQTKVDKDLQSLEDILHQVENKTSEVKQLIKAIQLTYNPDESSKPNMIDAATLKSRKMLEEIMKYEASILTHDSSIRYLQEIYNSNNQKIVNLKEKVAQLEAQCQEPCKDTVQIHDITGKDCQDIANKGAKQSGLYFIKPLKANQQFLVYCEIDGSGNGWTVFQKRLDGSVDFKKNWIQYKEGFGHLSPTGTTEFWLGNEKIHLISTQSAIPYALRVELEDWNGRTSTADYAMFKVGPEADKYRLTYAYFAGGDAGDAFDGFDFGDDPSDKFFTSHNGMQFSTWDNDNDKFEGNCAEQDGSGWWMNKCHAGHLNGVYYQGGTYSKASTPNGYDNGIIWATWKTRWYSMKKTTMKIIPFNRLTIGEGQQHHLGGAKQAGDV

T1 sequence (peptide, as listed by the source limits assumed): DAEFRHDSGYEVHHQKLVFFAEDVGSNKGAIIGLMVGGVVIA
T2 sequence (P04114 28-4563 limits assumed): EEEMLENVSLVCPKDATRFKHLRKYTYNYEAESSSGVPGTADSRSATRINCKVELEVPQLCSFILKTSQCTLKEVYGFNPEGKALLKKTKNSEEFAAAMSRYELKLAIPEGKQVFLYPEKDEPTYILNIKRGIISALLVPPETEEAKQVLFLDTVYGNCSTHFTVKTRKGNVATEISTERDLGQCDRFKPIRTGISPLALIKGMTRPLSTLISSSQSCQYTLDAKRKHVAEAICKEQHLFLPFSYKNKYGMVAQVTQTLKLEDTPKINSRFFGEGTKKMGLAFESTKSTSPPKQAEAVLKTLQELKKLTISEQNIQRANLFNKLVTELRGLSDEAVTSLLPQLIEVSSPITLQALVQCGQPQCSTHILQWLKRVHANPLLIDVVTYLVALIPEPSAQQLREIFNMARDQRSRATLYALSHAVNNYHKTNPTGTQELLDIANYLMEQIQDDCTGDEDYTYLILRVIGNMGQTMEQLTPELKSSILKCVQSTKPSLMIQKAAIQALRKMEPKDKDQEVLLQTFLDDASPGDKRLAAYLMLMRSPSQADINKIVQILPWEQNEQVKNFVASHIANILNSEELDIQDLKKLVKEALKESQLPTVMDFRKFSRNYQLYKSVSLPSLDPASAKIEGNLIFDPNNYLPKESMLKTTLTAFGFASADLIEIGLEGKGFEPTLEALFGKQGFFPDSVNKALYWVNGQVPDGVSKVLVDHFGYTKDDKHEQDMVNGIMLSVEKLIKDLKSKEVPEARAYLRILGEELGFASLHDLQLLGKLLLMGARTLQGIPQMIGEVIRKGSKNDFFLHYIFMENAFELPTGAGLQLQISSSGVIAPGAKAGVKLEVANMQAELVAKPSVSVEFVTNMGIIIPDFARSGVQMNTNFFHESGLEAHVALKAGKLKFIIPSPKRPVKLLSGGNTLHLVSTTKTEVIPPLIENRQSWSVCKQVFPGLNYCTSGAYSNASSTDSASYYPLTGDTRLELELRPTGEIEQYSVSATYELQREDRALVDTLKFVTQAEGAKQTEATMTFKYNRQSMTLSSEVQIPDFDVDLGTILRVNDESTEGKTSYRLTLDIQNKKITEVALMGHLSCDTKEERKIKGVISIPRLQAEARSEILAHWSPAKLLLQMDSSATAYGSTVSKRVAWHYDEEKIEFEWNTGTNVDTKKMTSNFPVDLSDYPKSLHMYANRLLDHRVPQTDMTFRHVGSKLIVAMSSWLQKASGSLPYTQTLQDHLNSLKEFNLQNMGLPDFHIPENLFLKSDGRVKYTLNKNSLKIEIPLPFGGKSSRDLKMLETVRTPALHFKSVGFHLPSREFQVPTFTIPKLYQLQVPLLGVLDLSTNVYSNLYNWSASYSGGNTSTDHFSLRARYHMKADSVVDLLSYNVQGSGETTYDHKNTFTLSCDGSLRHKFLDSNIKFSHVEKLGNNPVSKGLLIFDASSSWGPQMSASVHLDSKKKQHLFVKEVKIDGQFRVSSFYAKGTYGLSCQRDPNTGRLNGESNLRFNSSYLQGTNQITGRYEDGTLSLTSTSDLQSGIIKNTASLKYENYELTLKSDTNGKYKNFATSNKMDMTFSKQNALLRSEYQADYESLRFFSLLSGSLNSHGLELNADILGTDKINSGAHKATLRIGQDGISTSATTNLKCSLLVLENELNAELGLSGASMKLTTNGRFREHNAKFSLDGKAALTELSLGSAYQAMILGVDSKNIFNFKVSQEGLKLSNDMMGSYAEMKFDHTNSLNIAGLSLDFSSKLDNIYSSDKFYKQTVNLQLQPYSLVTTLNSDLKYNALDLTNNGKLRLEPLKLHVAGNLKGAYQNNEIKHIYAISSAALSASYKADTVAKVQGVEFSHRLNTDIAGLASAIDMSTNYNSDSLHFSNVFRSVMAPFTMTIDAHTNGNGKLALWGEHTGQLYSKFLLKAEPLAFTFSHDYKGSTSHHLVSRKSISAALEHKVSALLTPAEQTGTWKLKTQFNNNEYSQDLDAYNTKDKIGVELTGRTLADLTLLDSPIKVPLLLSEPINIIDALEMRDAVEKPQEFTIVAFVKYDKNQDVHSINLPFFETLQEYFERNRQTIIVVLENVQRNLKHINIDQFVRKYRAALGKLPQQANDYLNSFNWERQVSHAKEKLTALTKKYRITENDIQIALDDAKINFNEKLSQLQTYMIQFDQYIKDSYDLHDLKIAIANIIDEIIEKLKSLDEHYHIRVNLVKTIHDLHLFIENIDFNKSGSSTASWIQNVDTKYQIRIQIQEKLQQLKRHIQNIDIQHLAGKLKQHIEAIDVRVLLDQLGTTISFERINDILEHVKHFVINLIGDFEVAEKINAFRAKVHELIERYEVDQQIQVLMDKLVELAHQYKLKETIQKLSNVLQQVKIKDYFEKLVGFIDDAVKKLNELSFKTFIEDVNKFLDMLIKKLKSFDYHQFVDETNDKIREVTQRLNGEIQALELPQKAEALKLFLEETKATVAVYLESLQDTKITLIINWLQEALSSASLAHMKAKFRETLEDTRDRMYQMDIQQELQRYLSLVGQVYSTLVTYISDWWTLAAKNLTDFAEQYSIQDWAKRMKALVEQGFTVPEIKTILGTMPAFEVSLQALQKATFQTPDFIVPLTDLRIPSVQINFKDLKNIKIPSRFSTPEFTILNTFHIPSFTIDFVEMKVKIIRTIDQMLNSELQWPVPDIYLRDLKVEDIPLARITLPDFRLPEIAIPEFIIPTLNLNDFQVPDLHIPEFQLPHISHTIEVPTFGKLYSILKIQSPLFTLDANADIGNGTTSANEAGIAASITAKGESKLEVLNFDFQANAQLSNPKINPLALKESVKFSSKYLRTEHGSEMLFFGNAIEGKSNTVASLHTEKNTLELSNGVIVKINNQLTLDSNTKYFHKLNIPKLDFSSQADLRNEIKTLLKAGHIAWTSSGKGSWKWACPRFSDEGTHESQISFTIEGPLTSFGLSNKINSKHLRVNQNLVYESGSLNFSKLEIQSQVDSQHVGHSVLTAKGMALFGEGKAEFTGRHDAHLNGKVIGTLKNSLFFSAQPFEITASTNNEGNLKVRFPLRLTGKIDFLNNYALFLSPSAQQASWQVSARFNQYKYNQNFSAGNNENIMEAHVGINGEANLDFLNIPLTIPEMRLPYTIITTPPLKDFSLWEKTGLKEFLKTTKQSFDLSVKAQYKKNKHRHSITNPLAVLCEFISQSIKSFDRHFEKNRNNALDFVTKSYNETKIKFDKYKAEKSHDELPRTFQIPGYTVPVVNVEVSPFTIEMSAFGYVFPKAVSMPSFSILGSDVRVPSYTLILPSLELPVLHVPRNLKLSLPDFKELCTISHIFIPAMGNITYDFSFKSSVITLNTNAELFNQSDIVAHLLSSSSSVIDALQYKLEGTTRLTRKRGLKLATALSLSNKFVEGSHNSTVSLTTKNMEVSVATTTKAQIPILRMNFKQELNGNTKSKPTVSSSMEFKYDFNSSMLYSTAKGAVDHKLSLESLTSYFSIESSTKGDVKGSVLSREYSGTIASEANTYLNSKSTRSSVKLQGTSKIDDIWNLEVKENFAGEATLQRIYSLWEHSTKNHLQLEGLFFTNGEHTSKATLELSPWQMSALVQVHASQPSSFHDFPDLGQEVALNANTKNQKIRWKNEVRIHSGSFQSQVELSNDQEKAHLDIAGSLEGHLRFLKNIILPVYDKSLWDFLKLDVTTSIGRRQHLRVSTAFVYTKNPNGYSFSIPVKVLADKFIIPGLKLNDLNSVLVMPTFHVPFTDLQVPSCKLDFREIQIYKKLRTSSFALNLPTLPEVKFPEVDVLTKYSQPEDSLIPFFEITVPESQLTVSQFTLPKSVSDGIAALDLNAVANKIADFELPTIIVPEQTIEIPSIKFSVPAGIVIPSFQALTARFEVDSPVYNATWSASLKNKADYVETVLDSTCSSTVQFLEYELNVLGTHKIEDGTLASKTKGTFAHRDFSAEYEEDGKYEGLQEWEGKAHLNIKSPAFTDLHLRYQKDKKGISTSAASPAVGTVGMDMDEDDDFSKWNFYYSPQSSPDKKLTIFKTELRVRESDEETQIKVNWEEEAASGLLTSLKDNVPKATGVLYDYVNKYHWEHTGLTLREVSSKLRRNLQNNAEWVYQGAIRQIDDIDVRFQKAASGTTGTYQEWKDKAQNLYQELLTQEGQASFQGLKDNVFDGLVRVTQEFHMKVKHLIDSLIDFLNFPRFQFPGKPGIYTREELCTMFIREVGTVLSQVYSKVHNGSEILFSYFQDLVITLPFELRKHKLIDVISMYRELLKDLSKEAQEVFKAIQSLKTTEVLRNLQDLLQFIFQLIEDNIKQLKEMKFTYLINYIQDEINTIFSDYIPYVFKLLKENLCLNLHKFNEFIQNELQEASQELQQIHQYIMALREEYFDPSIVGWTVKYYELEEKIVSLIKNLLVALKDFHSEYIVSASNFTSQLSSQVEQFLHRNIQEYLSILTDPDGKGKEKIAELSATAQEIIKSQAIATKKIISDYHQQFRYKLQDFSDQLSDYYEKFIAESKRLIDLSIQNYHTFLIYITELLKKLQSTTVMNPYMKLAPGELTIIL

B1: heat-denatured chicken ovalbumin (dOVA standard) (other, UniProt P01012 2-386, looked up)
chain: GSIGAASMEFCFDVFKELKVHHANENIFYCPIAIMSALAMVYLGAKDSTRTQINKVVRFDKLPGFGDSIEAQCGTSVNVHSSLRDILNQITKPNDVYSFSLASRLYAEERYPILPEYLQCVKELYRGGLEPINFQTAADQARELINSWVESQTNGIIRNVLQPSSVDSQTAMVLVNAIVFKGLWEKAFKDEDTQAMPFRVTEQESKPVQMMYQIGLFRVASMASEKMKILELPFASGTMSMLVLLPDEVSGLEQLESIINFEKLTEWTSSNVMEERKIKVYLPRMKMEEKYNLTSVLMAMGITDVFSSSANLSGISSAESLKISQAVHAAHAEINEAGREVVGSAEAGVDAASVSEEFRADHPFLFCIKHIATNAVLFFGRCVSP
notes: also called dOVA std; misfolded hen ovalbumin
- binding result [1]: no binding

B2: recombinant human HSP60 with N-terminal His-tag (other, UniProt P10809 27-573, looked up, not shown: small tags and cut ends)
chain: AKDVKFGADARALMLQGVDLLADAVAVTMGPKGRTVIIEQSWGSPKVTKDGVTVAKSIDLKDKYKNIGAKLVQDVANNTNEEAGDGTTTATVLARSIAKEGFEKISKGANPVEIRRGVMLAVDAVIAELKKQSKPVTTPEEIAQVATISANGDKEIGNIISDAMKKVGRKGVITVKDGKTLNDELEIIEGMKFDRGYISPYFINTSKGQKCEFQDAYVLLSEKKISSIQSIVPALEIANAHRKPLVIIAEDVDGEALSTLVLNRLKVGLQVVAVKAPGFGDNRKNQLKDMAIATGGAVFGEEGLTLNLEDVQPHDLGKVGEVIVTKDDAMLLKGKGDKAQIEKRIQEIIEQLDVTTSEYEKEKLNERLAKLSDGVAVLKVGGTSDVEVNEKKDRVTDALNATRAAVEEGIVLGGGCALLRCIPALDSLTPANEDQKIGIEIIKRTLKIPAMTIAKNAGVEGSLIVEKIMQSSSEVGYDAMAGDFVNMVEKGIIDPTKVVRTALLDAAGVASLLTTAEVVVTEIPKEEKDPGMGAMGGMGGGMGGGMF
notes: mature; also called His-HSP60
- binding result [2]: binds
- binding result [3]: no binding
- binding result [4]: binds
